T1: PBX1 (recombinant, Origene) (UniProt P40424 1-430)
T1 sequence: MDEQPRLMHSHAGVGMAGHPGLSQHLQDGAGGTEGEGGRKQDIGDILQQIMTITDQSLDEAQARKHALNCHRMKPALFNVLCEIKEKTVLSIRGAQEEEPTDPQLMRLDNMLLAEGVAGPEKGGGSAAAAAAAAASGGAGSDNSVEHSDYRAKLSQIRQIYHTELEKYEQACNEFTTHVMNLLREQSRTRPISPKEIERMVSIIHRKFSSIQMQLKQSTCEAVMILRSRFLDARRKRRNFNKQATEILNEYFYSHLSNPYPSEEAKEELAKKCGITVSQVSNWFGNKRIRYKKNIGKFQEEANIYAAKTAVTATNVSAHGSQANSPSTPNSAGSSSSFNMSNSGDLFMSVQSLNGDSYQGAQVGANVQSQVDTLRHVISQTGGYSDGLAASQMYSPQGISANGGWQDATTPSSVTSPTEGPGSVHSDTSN

T2: PBX1-DBD (UniProt P40424 233-295)
T2 sequence: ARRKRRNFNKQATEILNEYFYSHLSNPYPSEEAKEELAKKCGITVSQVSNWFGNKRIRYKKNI

B1: PBX-MEIS Probe (dsDNA)
DNA 1: CTGCGTTGATTGACAGCCGC
DNA 2: GCGGCTGTCAATCAACGCAG
B2: PBX1 Probe (PBX1-CS-DNA-Biotin) (dsDNA)
DNA 1: CGAAATTGATTGATGCTTTAATTGAC
DNA 2: GTCAATTAAAGCATCAATCAATTTCG

How the values were obtained:
[1] = biological target: T1, PBX1 (recombinant, Origene); assay: EMSA
[2] = biological target: T2, PBX1-DBD; assay: SPR

| Binder | binding result [1] | Kd [2] [nM] |
| --- | --- | --- |
| B1 | binds | – |
| B2 | – | 0.8 |

Source: publication PMC8591422
